The record followed here is patent US5919694A, “Mutant phosphoenolpyruvate carboxylase, its gene, and production method of amino acid” (Ajinomoto Co., Inc., priority 1993, dated 1999).

For one data set, the system named is Escherichia coli HB101. The experiment in a line: Growth inhibition of Escherichia coli HB101 by aspartic acid analog compounds and recovery by additives. The data set is classed as cell-based. The conditions noted are these: E. coli HB101 in M9 medium, absorbance at 660 nm; FIGS. 1-3. The procedure: It is proposed, as a general structure of an inhibitor of phosphoenolpyruvate carboxylase, that a C4 dicarboxylic acid structure is essentially provided. From such a viewpoint, various compounds were subjected to screening by the present inventors. Escherichia coli HB101 was cultivated in an LB medium, and transferred to M9 media (containing 20 μg/ml of thiamine and 3 μg/ml of each of Leu and Pro) containing any one of DL-2-amino-4-phosphonobutyric acid, bromosuccinic acid, meso-2,3-dibromosuccinic acid, 2,2-difluorosuccinic acid, 3-bromopyruvic acid, α-ketobutyric acid, α-ketoadipinic acid DL-threo-β-hydroxyaspartic acids L-aspartic acid β-metyl ester α-metyl-DL-aspartic acid, 2,3-diaminosuccinic acid or aspartic acid-β-hydrazide, and absorbance of the medium was measured at 660 nm with the passage of time, thereby growth was monitored.
Further, when these compounds were present at their growth inhibitory concentrations, it was investigated whether or not the inhibition was recovered by addition of nucleic acids (each of uridine, adenosine: 10 mg/dl), glutamic acid or amino acids of the aspartic acid family (Asp: 0.025%, each of Met, Thr, Lys: 0.1%).
Further, growth recovery of Escherichia coli, in the case of addition of the aforementioned inhibition recovering substances alone or as a mixture of 2 species or 3 species, is shown in FIGS. 4-6. […]

In data set [1] the test system is phosphoenolpyruvate carboxylase. Nature of the data set: Sensitivity of phosphoenolpyruvate carboxylase activity to aspartic acid. The data set is classed as biochemical, Escherichia coli. From the text:
When the microorganism transformed with the DNA sequence of the present invention as described above is cultivated, and this DNA sequence is expressed, then a mutant enzyme is obtained. It becomes apparent, by measuring the activity by adding aspartic acid to an enzyme reaction system, whether or not the mutant enzyme thus obtained has desensitized feedback inhibition by aspartic acid. It is possible for the measurement of the enzyme activity to use a spectrometric method (Yoshinage, T., Izui, K. and Katsuki, H., J. Biochem., 68, 747-750 (1970)) and the like.
Sensitivity to aspartic acid was investigated in accordance with a known method (Yoshinaga, T., Izui, K. and Katsuki, H., J. Biochem., 68, 747-750 (1970)). Namely, as a result of measurement of the enzyme activity produced by each of the transformants or Escherichia coli harboring pS2 in the presence of acetyl-coenzyme A known to affect the activity in an activity measurement system at a concentration of 0.1 mM or 1 mM, sensitivity to aspartic acid was measured as shown in FIGS. 9 and 10.
Sensitivity to aspartic acid was investigated in accordance with a known method (Yoshinaga, T., Izui, K. and Katsuki, H., J. Biochem., 68, 747-750 (1970)). Namely, as a result of measurement of the enzyme activity in the presence of acetyl-coenzyme A known to affect the activity in an activity measurement system at a concentration of 1 mM or 2 mM, sensitivity to aspartic acid was measured as shown in FIG. 12.
Sensitivity to aspartic acid was investigated in accordance with a known method (Yoshinaga, T., Izui, K. and Katsuki, H., J. Biochem., 68, 747-750 (1970)). Namely, as a result of measurement of the enzyme activity in the presence of acetyl-coenzyme A known to affect the activity in an activity measurement system at a concentration of 1 mM or 2 mM, sensitivity to aspartic acid was measured as shown in FIG. 13.

For `NNC(=O)CC(N)C(=O)O` (stereo not drawn) [aspartate-β-hydrazide], the “growth inhibition of Escherichia coli” value in the data set with Escherichia coli HB101 is reported as “growth inhibition”. In the case of `N[C@H](C(=O)O)[C@H](O)C(=O)O` (relative stereo) [DL-threo-β-hydroxyaspartate], in the data set with Escherichia coli HB101, the “growth inhibition of Escherichia coli” value is given as “growth inhibition”.

B1: wild type enzyme: wild type phosphoenolpyruvate carboxylase of Escherichia coli, expressed from pS2 or pT2 (protein, UniProt P00864 1-883, looked up)
Phosphoenolpyruvate …: MNEQYSALRSNVSMLGKVLGETIKDALGEHILERVETIRKLSKSSRAGNDANRQELLTTLQNLSNDELLPVARAFSQFLNLANTAEQYHSISPKGEAASNPEVIARTLRKLKNQPELSEDTIKKAVESLSLELVLTAHPTEITRRTLIHKMVEVNACLKQLDNKDIADYEHNQLMRRLRQLIAQSWHTDEIRKLRPSPVDEAKWGFAVVENSLWQGVPNYLRELNEQLEENLGYKLPVEFVPVRFTSWMGGDRDGNPNVTADITRHVLLLSRWKATDLFLKDIQVLVSELSMVEATPELLALVGEEGAAEPYRYLMKNLRSRLMATQAWLEARLKGEELPKPEGLLTQNEELWEPLYACYQSLQACGMGIIANGDLLDTLRRVKCFGVPLVRIDIRQESTRHTEALGELTRYLGIGDYESWSEADKQAFLIRELNSKRPLLPRNWQPSAETREVLDTCQVIAEAPQGSIAAYVISMAKTPSDVLAVHLLLKEAGIGFAMPVAPLFETLDDLNNANDVMTQLLNIDWYRGLIQGKQMVMIGYSDSAKDAGVMAASWAQYQAQDALIKTCEKAGIELTLFHGRGGSIGRGGAPAHAALLSQPPGSLKGGLRVTEQGEMIRFKYGLPEITVSSLSLYTGAILEANLLPPPEPKESWRRIMDELSVISCDVYRGYVRENKDFVPYFRSATPEQELGKLPLGSRPAKRRPTGGVESLRAIPWIFAWTQNRLMLPAWLGAGTALQKVVEDGKQSELEAMCRDWPFFSTRLGMLEMVFAKADLWLAEYYDQRLVDKALWPLGKELRNLQEEDIKVVLAIANDSHLMADLPWIAESIQLRNIYTDPLNVLQAELLHRSRQAEKEGQEPDPRVEQALMVTIAGIAAGMRNTG
Take B1: the “enzyme activity at high aspartic acid concentration (sensitivity to aspartic acid)” value in data set [1] (Example 2, acetyl-coenzyme A 0.1 mM or 1 mM, FIGS. 9 and 10) is recorded as “loses its activity”; in data set [1] (Example 6 <3>, pT2R438C (438th Arg to Cys), acetyl-coenzyme A 1 mM or 2 mM, FIG. 12), “substantially loses its activity”; in data set [1] (Example 6 <5>, pT2K620S, acetyl-coenzyme A 1 mM or 2 mM, FIG. 13), “substantially loses its activity”.
